Measurements from article PMC5097833 (Chemico-biological interactions, 2015).

B1: mouse anti-human BChE monoclonal antibody 11D8 (antibody, V domains shown)
VH: QVQLQQSGAELARPGASVKLSCKASGYTFTSQWLQWVKQRPGQGLEWIGAIYPGDGDTRYTQKFKGKATLTADKSSSTAYMQLTNLAPEDSAVYYCARSSMDYWGQGTSVTVSS
VL: DILLTQSPAILSVSPGERVRLSCRASQSCGTSIYWYQQRTNGSPRLLIMYASEPFSGIPSRFSGSGSGTDFTLSINSVESEDIADYYCQQSNSWPWTFGGGTRLEIK
B2: mouse anti-human BChE monoclonal antibody B2 12-1 (antibody, V domains shown)
VH: EVQLQQSGPELVKPGASVKISCKASGYTFTDYSMHWVKLSHGKSLEWIGYIYPYNDDTDYNQKFKTKATLTVDSSSSITYLELRSLTSEDSAVYYCARSDGYSYYFDYWGQGTTLTVSS
VL: DIVMTQSPATLSVTPGDRVSLSCRASQSISDYLHWYQQKSHESPRLLIKYASQSISGIPSRFSGGGSGSDFTLSINSVEPEDVGVYYCQNGHRFPLTFGAGTKLELK

Target: human butyrylcholinesterase (human (endogenous in plasma), UniProt P06276)
Sequence (P06276 29-602): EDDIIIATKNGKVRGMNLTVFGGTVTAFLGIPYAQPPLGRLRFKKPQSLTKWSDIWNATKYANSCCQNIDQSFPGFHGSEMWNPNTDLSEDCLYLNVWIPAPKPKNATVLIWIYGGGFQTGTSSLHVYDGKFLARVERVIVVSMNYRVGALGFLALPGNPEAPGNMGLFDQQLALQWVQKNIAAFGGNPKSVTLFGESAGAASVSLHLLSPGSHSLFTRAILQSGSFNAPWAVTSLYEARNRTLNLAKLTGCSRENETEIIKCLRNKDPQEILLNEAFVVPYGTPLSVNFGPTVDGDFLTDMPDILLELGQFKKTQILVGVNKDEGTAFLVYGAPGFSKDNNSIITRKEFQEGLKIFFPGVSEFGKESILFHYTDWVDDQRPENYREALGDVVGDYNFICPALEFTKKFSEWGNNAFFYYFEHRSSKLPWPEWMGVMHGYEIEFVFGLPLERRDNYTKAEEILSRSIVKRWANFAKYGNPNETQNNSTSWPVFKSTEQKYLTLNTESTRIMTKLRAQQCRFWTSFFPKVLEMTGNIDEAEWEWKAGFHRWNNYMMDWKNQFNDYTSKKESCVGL
Assay: pull-down

| Binder | binding result |
| --- | --- |
| B1 | binds |
| B2 | binds |
